Data published in patent publication US20240279318A1 (NANJING LEGEND BIOTECH, published 2024).
Numbering of substitutions follows the chain as printed. Read-outs that look alike come from different tables or passages of the source. Blank lines part the entries; values can stand above or below the binder they belong to.

How the values were obtained:
[1] = target: ARNTL peptide/HLA-A*02:01 complex (recombinant) (human); test: SPR
[2] = target: ATG9A peptide/HLA-A*02:01 complex (recombinant) (human); test: SPR
[3] = target: BRCA2 peptide/HLA-A*02:01 complex (recombinant) (human); test: SPR
[4] = target: CDC14A peptide/HLA-A*02:01 complex (recombinant) (human); test: SPR
[5] = target: NR2E1 peptide/HLA-A*02:01 complex (recombinant) (human); test: SPR
[6] = target: OR1I1 peptide/HLA-A*02:01 complex (recombinant) (human); test: SPR
[7] = target: OR51B6 peptide/HLA-A*02:01 complex (recombinant) (human); test: SPR
[8] = target: OR6C1 peptide/HLA-A*02:01 complex (recombinant) (human); test: SPR
[9] = target: PTP4A1 peptide/HLA-A*02:01 complex (recombinant) (human); test: SPR
[10] = target: RP1 peptide/HLA-A*02:01 complex (recombinant) (human, UniProt P16213 21-119 (Pongo pygmaeus entry)); test: SPR
[11] = target: RCL1 peptide/HLA-A*02:01 complex (recombinant) (human, UniProt P16213 21-119 (Pongo pygmaeus entry)); test: SPR
[12] = target: ZNF566 peptide/HLA-A*02:01 complex (recombinant) (human); test: SPR
[13] = target: T1, AFP158/HLA-A*02:01 complex (human); test: SPR; vs AS170036 VL1VH1
T1 construct: biotinylated on the BSP by BirA for ELISA and panning; also called biotinylated AFP158/HLA-A*02:01 complex; Bio-AFP158

[14] = target: T1, AFP158/HLA-A*02:01 complex; test: SPR; vs AS170036 VL1VH1; remark: listed apart in the source
[15] = target: T1, AFP158/HLA-A*02:01 complex; test: SPR, crude scFv captured;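 also: Peptide–MHC complex flowed at several concentrations over sensorchip-captured scFv, Kd derived from on- and off-rates obtained from the association and dissociation curves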
Method: The experiment was carried out as follows. The crude scFv protein were captured onto the sensorchip. Different concentrations (320, 160, 40 nM) of AFP158/HLA-A*02:01 complex flowed over the sensorchip surface, and were allowed to bind the antibody fragment for 100 s followed by injection of the running buffer to allow dissociation of the complex. On-rate (kd) and off-rate (kd) were calculated based on association and dissociation curve, and were used to estimate the equilibrium dissociation constant (KD).

binding result [1]: no binding | binding result [2]: no binding | binding result [3]: no binding | binding result [4]: no binding | binding result [5]: no binding | binding result [6]: no binding | binding result [7]: no binding | binding result [8]: no binding | binding result [9]: no binding | binding result [10]: no binding | binding result [11]: no binding | binding result [12]: no binding | Affinity increase [13]: > 2 fold | Affinity increase [14]: 4.1 fold | Kd [15]: 56 nM
B1: AS170036 VL1VH1-VHG108E (scFv)
scFv: QSALTQPRSVSGSPGQSVTISCAGTSSDVGSENYVSWYQQHPGKAPKLMIYQVNKRASGVPDRFSGSKSGNTASLTISGLQAEDEADYYCASYRSSDHNIVFGGGTKLTVLGGGGSGGGGSGGGGSEVQLVESGGGLVQPGGSLRLSCAASGFTFSSYAMSWVRQAPGKGLEWVSTINSGTGSPYYADSVKGRFTISRDNSKNTLYLQMNSLRAEDTAVYYCAKNFFDGSWFLEPPAMDYWGQGTLVTVSSHHHHHH

binding result [1]: no binding | binding result [2]: no binding | binding result [3]: no binding | binding result [4]: no binding | binding result [5]: no binding | binding result [6]: no binding | binding result [7]: no binding | binding result [8]: no binding | binding result [9]: no binding | binding result [10]: no binding | binding result [11]: no binding | binding result [12]: no binding | Affinity increase [13]: > 2 fold | Affinity increase [14]: 2.4 fold | Kd [15]: 100 nM
B2: AS170036 VL1VH1-VHS57Q (scFv)
scFv: B1 scFv with S183Q, E234G

binding result [1]: no binding | binding result [2]: no binding | binding result [3]: no binding | binding result [4]: no binding | binding result [5]: no binding | binding result [6]: no binding | binding result [7]: no binding | binding result [8]: no binding | binding result [9]: no binding | binding result [10]: no binding | binding result [11]: no binding | binding result [12]: no binding | Affinity increase [13]: > 2 fold | Affinity increase [14]: 4.7 fold | Kd [15]: 58 nM
B3: AS170036 VL1VH1-VHG108M (scFv)
scFv: B1 scFv with E234M

binding result [1]: no binding | binding result [2]: no binding | binding result [3]: no binding | binding result [4]: no binding | binding result [5]: no binding | binding result [6]: no binding | binding result [7]: no binding | binding result [8]: no binding | binding result [9]: no binding | binding result [10]: no binding | binding result [11]: no binding | binding result [12]: no binding | Affinity increase [13]: > 2 fold | Affinity increase [14]: 2 fold | Kd [15]: 140 nM
B4: AS170036 VL1VH1-VHG108N (scFv)
scFv: B1 scFv with E234N

binding result [1]: no binding | binding result [2]: no binding | binding result [3]: no binding | binding result [4]: no binding | binding result [5]: no binding | binding result [6]: no binding | binding result [7]: no binding | binding result [8]: no binding | binding result [9]: no binding | binding result [10]: no binding | binding result [11]: no binding | binding result [12]: no binding | Affinity increase [13]: > 2 fold | Affinity increase [14]: 2.8 fold | Kd [15]: 88 nM
B5: AS170036 VL1VH1-VHS57R (scFv)
scFv: B1 scFv with S183R, E234G
